From publication PMC3987144 (The Journal of Cell Biology, 2014)
Each block holds one molecule with its values, some of them ahead of it.

B2: His-SNAP25 (natural protein)
chain: MPADPSEEVAPQVPKTELEELQINAQGVADESLESTRRMLALCEESKEAGIRTLVALDDQGEQLDRIEEGMDQINADMREAEKNLSGMEKCCGICVLPCNKSQSFKEDDGTWKGNDDGKVVNNQPQRVMDDRNGMMAQAGYIGRITNDAREDEMEENMGQVNTMIGNLRNMALDMGSELENQNRQIDRINRKGESNEARIAVANQRAHQLLK

Key:
[1] = target: Syx1A (Syntaxin 1A), endogenous (Drosophila melanogaster (endogenous in adult fly heads)) (UniProt Q24547); test: co-IP
[2] = target: GST-Syx1A (Syntaxin 1A, 1-267 aa) (Drosophila melanogaster, UniProt Q24547 1-267); test: pull-down
[3] = target: GST-open Syx1A (Syx1A L168A/E169A mutant, 1-267 aa) (Drosophila melanogaster, UniProt Q24547 1-267, L168A | E169A); test: pull-down
[4] = target: V100 (neuronal v-ATPase V0 subunit a1), endogenous (Drosophila melanogaster (endogenous in adult fly heads)) (UniProt Q8IML5); test: co-IP
[5] = target: B2; test: pull-down

Sequence of Syx1A (Syntaxin 1A), endogenous (Drosophila melanogaster (endogenous in adult fly heads)) (Q24547 whole entry, the tested form may be a part): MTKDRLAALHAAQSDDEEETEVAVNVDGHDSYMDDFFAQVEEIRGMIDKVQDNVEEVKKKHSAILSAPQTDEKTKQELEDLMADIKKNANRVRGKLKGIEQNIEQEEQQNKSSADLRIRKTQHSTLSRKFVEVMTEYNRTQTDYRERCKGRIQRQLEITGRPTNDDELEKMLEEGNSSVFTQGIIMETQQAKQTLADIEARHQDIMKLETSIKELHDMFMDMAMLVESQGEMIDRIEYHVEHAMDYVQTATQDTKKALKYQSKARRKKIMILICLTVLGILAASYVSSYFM

B1: His-n-Syb (neuronal Synaptobrevin, amino acids 1-104) (domain or fragment)
chain: MADAAPAGDAPPNAGAPAGEGGDGEIVGGPHNPQQIAAQKRLQQTQAQVDEVVDIMRTNVEKVLERDSKLSELDDRADALQQGASQFEQQAGKLKRKFWLQNLK
binding result [2]: binds

Molecule: B2
binding result [3]: binds
binding result [2]: binds
percent of total input in complex with V100 (% of total input) [4]: 1

Next, values leading:

percent of V100 in a complex with Syx1A [1]: < 50%
Molecule: V100 (neuronal v-ATPase V0 subunit a1), endogenous (from UniProt Q8IML5 1-833) (natural protein)

binding result [5]: binds
B3: GST-Syx1A-H3 (Syx1A SNARE domain, 200-267 aa) (domain or fragment)
chain: ARHQDIMKLETSIKELHDMFMDMAMLVESQGEMIDRIEYHVEHAMDYVQTATQDTKKALKYQSKARRK
